Patent US20230167182A1 (BIOSION, published 2023)
Read-outs that look alike come from different tables or passages of the source.

T1: macaca IL6R-his protein (macaca mulatta)
T1 chain: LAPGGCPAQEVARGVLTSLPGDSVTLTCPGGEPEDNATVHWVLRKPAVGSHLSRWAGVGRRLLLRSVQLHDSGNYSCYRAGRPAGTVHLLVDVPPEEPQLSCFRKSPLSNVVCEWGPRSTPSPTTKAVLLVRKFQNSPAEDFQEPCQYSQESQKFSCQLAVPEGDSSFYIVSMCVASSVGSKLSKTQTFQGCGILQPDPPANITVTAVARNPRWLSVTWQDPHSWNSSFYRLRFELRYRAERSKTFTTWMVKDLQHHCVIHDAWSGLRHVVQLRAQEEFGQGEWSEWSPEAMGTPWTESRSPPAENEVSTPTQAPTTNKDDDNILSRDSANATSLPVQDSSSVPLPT

T2: human IL6R expressed on cell surface (human, UniProt P08887 20-468)
T2 construct: whole, on cells; also called cell surface human IL6R; U266 cells expressing human IL6R
T2 sequence (looked up): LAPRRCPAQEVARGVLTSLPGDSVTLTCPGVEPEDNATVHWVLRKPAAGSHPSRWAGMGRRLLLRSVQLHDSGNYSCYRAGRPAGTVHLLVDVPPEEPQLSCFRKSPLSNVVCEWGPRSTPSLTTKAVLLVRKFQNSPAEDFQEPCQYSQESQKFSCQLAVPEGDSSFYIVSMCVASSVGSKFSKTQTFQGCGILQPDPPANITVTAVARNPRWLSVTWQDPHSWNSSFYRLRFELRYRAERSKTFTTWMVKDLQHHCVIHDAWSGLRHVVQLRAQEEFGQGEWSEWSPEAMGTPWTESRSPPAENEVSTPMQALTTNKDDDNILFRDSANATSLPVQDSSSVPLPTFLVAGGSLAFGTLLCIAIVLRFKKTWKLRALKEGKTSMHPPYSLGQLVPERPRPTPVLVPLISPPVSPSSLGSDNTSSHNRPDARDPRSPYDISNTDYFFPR

B1: Tocilizumab (antibody, human IgG1, kappa, V domains shown)
VH: QVQLQESGPGLVRPSQTLSLTCTVSGYSITSDHAWSWVRQPPGRGLEWIGYISYSGITTYNPSLKSRVTMLRDTSKNQFSLRLSSVTAADTAVYYCARSLARTTAMDYWGQGSLVTVSS
VL: DIQMTQSPSSLSASVGDRVTITCRASQDISSYLNWYQQKPGKAPKLLIYYTSRLHSGVPSRFSGSGSGTDFTFTISSLQPEDIATYYCQQGNTLPYTFGQGTKVEIKR
notes: In house made; also called benchmark; Actemra
B2: mouse anti-IL6R monoclonal antibody 1F7 (antibody, V domains shown)
VH: QVQLQQPGAELVKPGASVKLSCKASDYTFTSYWMHWVKQRPGQGLEWIGEINPSNGRTNYNEKFKNKATLTVDKSSSTAYVQLYSLTSEDSAVYYCARLSIHYVFDYWGQGTTLTVSS
VL: ELVLTQSPTTMAASPGEKITFTCSASSSISSNYLHWYQQKPGFSPKLLISGTSNLASGVPPRFSGSGSGTSYSLTIVTMEAEDVATYYCQQGSGIPFTFGSGTKLEIK
notes: Mouse hybridoma mAb
B3: mouse anti-IL6R monoclonal antibody 1A3 (antibody, V domains shown)
VH: QVQLQQPGAELVKPGASVKLSCKASGYTFTSYWMHWVKQRPAQGLEWIGEINPSNGRTNFNEKFKTKATLTVDKSSNTAYMQLSSLTSEDSAVYSCLRLNTHYVFDYWGQGTTLTVSS
VL: EIVLTQSPTTMAASPGEKITITCSASSSISSNYLHWYQQKPGFSPKLLISRTSNLASGVPTRFSGSGSGTSYSLTIGTMEAGDVATYYCQQGSGIPFTFGSGTKLEIK
notes: Mouse hybridoma mAb purified on Protein A
B4: mouse anti-IL6R monoclonal antibody 1H7 (antibody, V domains shown)
VH: QVQLQQPGTELVKPGASVKLSCKASGYTFTNYWMHWVKQRPGQGLDWIGEINPTNGRTNYNENFKSKATLTVDKSSSTAYMQLSSLTSEDSAVYYCARLNTHYVFDSWGQGTTLTLSS
VL: EIVLTQSPTTLAASPGEKITFTCSVSSSISSNYLHWYQQKPGFSPKLLISRTSTLASGVPARFSGSGSGTSYSLTIGTMEAEDVATYYCQQGSGIPFTFGSGTKLELK
notes: Mouse hybridoma mAb
B5: mouse anti-IL6R monoclonal antibody 1D4 (antibody, V domains shown)
VH: QVQLQQPGAELVKPGASVKLSCKASGYTFTSYWMHWVKVRPGQGLEWIGEINPTNGRTNYNEDFKSKATLTVNSSSSTAYMQLSSLTSEDSAVYYCARLNTHYVFDYWGQGTTLTVSS
VL: EIVLTQSPTILAASPGEKITFTCSVSSSISSNYLHWYQQKPGFSPKLLIYRTSNLASGVPARFSGSGSGTSYSLTIGTMEAEDVATYYCQQGSGIPFTFGSGTKLEIK
notes: Mouse hybridoma mAb
B6: mouse anti-IL6R monoclonal antibody 3C2 (antibody, V domains shown)
VH: QVQLQQPGTELVKPGASVKLSCKASGYTFTTYWIHWVKQRPGQGLEWIGEINPSNGRTNYNEHFKSKATLTVDKSSSTASMQLSSLTSADSAVYYCARLNTHYVFDSWGQGTTLTVSS
VL: EIVLTQSPTTMAASPGEKITITCSASSSISSNYLHWYQQKPGFSPKLLIYRTSNLASGVPTHFSGSGSGTSYSLTIGTMEAEDVATYYCQQGSGIPFTFGSGTKLEIK
notes: Mouse hybridoma mAb
B7: mouse anti-IL6R monoclonal antibody 1B5 (antibody, V domains shown)
VH: QVQLQQPGAELVKPGASVKLSCKASGYTFTSYWMHWVKQRPGQGLEWIGEINPSNGRTNYNENFKSKATLTVDKSSSTAYMQLSSLTSEDSAVYYCARLNTHYVFDYWGQGTTLTVSS
VL: EIVLTQSPTILAASPGEKITFTCSVSSSISSNYLHWYQQKPGFSPKLLIYRTSNLASGVPARFSGSGSGTSYSLTIGTMEAEDVATYYCQQGSGIPFTFGSGTKLEIK
notes: Mouse hybridoma mAb
B8: Chimeric 1H7 (antibody, human IgG1, kappa, V domains shown)
VH: QVQLQQPGTELVKPGASVKLSCKASGYTFTNYWMHWVKQRPGQGLDWIGEINPTNGRTNYNENFKSKATLTVDKSSSTAYMQLSSLTSEDSAVYYCARLNTHYVFDSWGQGTTLTLSS
VL: EIVLTQSPTTLAASPGEKITFTCSVSSSISSNYLHWYQQKPGFSPKLLISRTSTLASGVPARFSGSGSGTSYSLTIGTMEAEDVATYYCQQGSGIPFTFGSGTKLELKR
notes: Mouse variable regions on human IgG1 / human kappa constant regions; also called chimeric antibody 1H7
B9: humanized antibody hu1H7-V5 (antibody, human IgG1, kappa, V domains shown)
VH: QVQLVQSGAEVKKPGASVKVSCKASGYTFTNYWMHWVRQAPGQGLEWIGEINPTNGRTNYNENFKSRVTLTVDTSTSTVYMELSSLRSEDTAVYYCARLNTHYVFDSWGQGTLVTVSS
VL: EIVLTQSPGTLSLSPGERATLSCSVSSSISSNYLHWYQQKPGLSPRLLISRTSTLASGIPARFSGSGSGTEYTLTISRMQSEDFAVYYCQQGSGIPFTFGQGTKLEIKR
notes: Human IgG1 / kappa

Key:
human IL6R-Fc protein [1] = target: T3, human IL6R-Fc protein (human, biotin-labeled in the ELISAs (sites not given)); test: benchmark blocking ELISA: antibody pre-incubated with biotin-labeled human IL6R-Fc, added to plate-coated Tocilizumab (competitor: Tocilizumab)
T3 construct: In house made; also called biotin-labeled human IL6R-Fc protein
Target sequence in this assay (chain, as listed by the source limits assumed): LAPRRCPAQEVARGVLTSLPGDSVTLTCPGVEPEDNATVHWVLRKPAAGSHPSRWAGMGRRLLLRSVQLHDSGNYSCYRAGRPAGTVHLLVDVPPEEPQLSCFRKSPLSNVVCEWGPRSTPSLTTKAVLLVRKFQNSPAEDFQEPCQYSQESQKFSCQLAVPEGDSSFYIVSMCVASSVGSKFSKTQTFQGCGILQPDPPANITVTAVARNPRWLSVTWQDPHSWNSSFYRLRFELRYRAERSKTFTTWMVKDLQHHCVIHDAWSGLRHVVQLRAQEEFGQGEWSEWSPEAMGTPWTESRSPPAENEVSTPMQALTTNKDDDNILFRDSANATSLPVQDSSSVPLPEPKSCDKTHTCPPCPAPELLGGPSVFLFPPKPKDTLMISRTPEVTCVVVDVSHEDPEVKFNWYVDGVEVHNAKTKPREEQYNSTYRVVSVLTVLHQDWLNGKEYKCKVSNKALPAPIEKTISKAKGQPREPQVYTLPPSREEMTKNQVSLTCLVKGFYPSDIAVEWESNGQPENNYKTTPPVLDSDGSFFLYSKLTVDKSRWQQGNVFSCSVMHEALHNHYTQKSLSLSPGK

macaca IL6R-his protein [2] = target: T1, macaca IL6R-his protein; test: indirect ELISA on plate-coated macaca IL6R-his
Description: The anti-IL6R antibodies were tested for their cross-reaction with macaca IL6R. Briefly, 96-well micro plates were coated with 2 μg/ml macaca IL6R-his protein (in house made, amino acid sequence set forth in SEQ ID NO:45) in carbonate/bicarbonate buffer (pH 9.6), 100 μl/well, for 2 hours at 37° C. ELISA plates were washed once with wash buffer (PBS+0.05% v/v Tween-20, PBST) and then blocked with 200 μl/well blocking buffer (5% w/v non-fatty milk in PBST) for 2 hours at 37° C. Plates were washed 4 times and incubated with 100 μl/well serially diluted anti-IL6R antibodies of the disclosure or controls, starting at 66.67 nM with 5-fold serial dilution in PBST with 2.5% w/v non-fat milk, and incubated at 37° C. for 40 minutes. ELISA plates were washed 4 times again and incubated with 100 μl/well Peroxidase AffiniPure Goat Anti-Mouse IgG, Fcγ Fragment Specific (1:5000 dilution in PBST buffer, Jackson ImmunoResearch Laboratories, Inc., Cat #115-035-071) for 40 minutes at 37° C. After the final wash, plates were incubated with 100 μl/well TMB (InnoReagents). The reaction was stopped 3-10 minutes later at room temperature with 50 μl/well 1M H₂SO₄, and the absorbance of each well was read on a microplate reader using dual wavelength mode with 450 nm for TMB and 630 nm as the reference wavelength. Then the OD (450-630) values were plotted against antibody concentration. Data was analyzed using Graphpad Prism software and EC₅₀ values were reported.

[3] = target: T2, human IL6R expressed on cell surface; test: cell-based binding FACS on U266 cells
Description: (§1) The binding activities of the mouse anti-IL6R antibodies to IL6R expressed on cell surface were tested by flow cytometry (FACS). Briefly, human myeloma cells U266 (ATCC® TIB-196™) were harvested from cell culture flasks, washed twice and resuspended in phosphate buffered saline (PBS) containing 2% v/v Fetal Bovine Serum (FACS buffer). 2×10⁵ U266 cells per well were incubated in 96 well-plates with 100 μl of the anti-IL6R antibodies or controls at various concentrations (starting at 40 nM with a 3-fold serial dilution in FACS buffer) for 40 minutes on ice. Cells were washed twice with FACS buffer, and added with 100 μL/well R-Phycoerythrin AffiniPure F(ab′)₂ Fragment Goat Anti-Mouse IgG (H+L) (1:1000 dilution in FACS buffer, Jackson ImmunoResearch Laboratories, Inc., Cat #115-116-146). Following an incubation of 40 minutes at 4° C. in dark, cells were washed three times and resuspended in FACS buffer. Fluorescence was measured using a Becton Dickinson FACS Canto II-HTS equipment. Data was analyzed using Graphpad Prism software and EC₅₀ values were reported.

human IL6R-Fc protein [4] = target: T3, human IL6R-Fc protein; test: ligand blocking ELISA: antibody pre-incubated with biotin-labeled human IL6R-Fc, added to plate-coated human IL6 (blocked ligand: human IL6)
Description: The next day, anti-IL6R antibodies or controls were diluted with biotin labeled human IL6R-Fc protein (prepared in house, SEQ ID NO: 43, 39.5 ng/ml in 2.5% w/v non-fatty milk in PBST), starting at 100 nM with a 4-fold serial dilution, and incubated at room temperature for 40 minutes. […] Plates were washed for 4 times using wash buffer, and added and incubated with 100 μl/well of streptavidin conjugated HRP (1:10000 dilution in PBST buffer, Jackson ImmunoResearch Laboratories, Inc., Cat #016-030-084) for 40 minutes at 37° C. Plates were washed again using wash buffer. Finally, TMB was added and the reaction was stopped using 1M H₂SO₄. The absorbance was read on a microplate reader using dual wavelength mode with 450 nm for TMB and 630 nm as the reference wavelength, and then the OD (450-630) values were plotted against antibody concentration. Data was analyzed using Graphpad Prism software and IC₅₀ values were reported.

macaca IL6R-his protein [5] = target: T1, macaca IL6R-his protein; test: indirect ELISA on plate-coated macaca IL6R-his
[6] = target: T2, human IL6R expressed on cell surface; test: cell-based binding FACS on U266 cells; remark: listed apart in the source
Description: as §1
For the cell-based binding FACS, R-Phycoerythrin AffiniPure Goat Anti-human IgG Fcγ fragment specific (Jackson ImmunoResearch Laboratories, Inc., Cat #109-115-098) was used instead of R-Phycoerythrin AffiniPure F(ab′)₂ Fragment Goat Anti-Mouse IgG (H+L), 1:1000 dilution in FACS buffer, 100 μl/well.

| Binder | IC50 (human IL6R-Fc protein [1]) [nM] | EC50 (macaca IL6R-his protein [2]) [nM] | EC50 [3] [nM] | IC50 (human IL6R-Fc protein [4]) [nM] | EC50 (macaca IL6R-his protein [5]) [nM] | EC50 [6] [nM] |
| --- | --- | --- | --- | --- | --- | --- |
| B1 | 0.812 | 0.0571 | 1.7 | 2.3 | 0.201 | 1.76 |
| B2 | – | 0.14 | – | 0.617 | – | – |
| B3 | – | – | 0.229 | – | – | – |
| B4 | 0.186 | 0.213 | – | – | 0.147 | 0.301 |
| B5 | – | – | – | 0.957 | – | – |
| B6 | – | 0.296 | – | – | – | – |
| B7 | 0.23 | 0.205 | 0.204 | – | – | – |
| B8 | 0.194 | – | – | – | 0.227 | 0.298 |
| B9 | – | – | – | – | 0.242 | 0.417 |
